The source of these data is article PMC5673899, “Structural basis for receptor recognition of pollen tube attraction peptides” (Nature Communications, 2017).

One test has as its system SUMO-tagged MDIS1LRR. Description: Gel filtration assay with SUMO-tagged MDIS1^LRR with or without MIK1^LRR. The test is classed as binding. The note with it: in the presence or absence of MIK1LRR, peer review file. An excerpt:
We thank the reviewer for his/her high evaluation of our work and constructive […]
We have conducted more experiments including functional analysis of […]
bind to either MIK1 or MIK2 in their binding experiments. Considering the importance of genetic data published by other groups, I recommend that the authors conduct more binding experiments using MDIS1, MDIS2, and mixtures thereof with […]
interaction of AtLURE1.2 with the extracellular LRR domain of MIK1 (MIK1LRR) or MIK2 (MIK2LRR). All the proteins were purified from insect cells. As shown in […]
AtLURE1.2 in the assays, because the AtLURE1.2 and MIK1LRR or MIK2LRR were well separated in gel filtration. This is strikingly different from PRK6LRR with AtLURE1.2, which co-migrated when tested using the same assay. To further test interaction of AtLURE1.2 with MIK1LRR or MIK2LRR, we used ITC to quantify the binding affinity between the insect cell-generated AtLURE1.2 and MIK1LRR or […]
binding of AtLURE1.2 to MIK1LRR or MIK2LRR (Supplementary Fig. 6). In contrast to […]
into the MIK1LRR- or MIK2LRR-containing cell (Supplementary Fig. 6).
We then tested whether LURE1.2 interacts with MIK1LRR or MIK2LRR in the presence of the extracellular LRR domain of MDIS1 (MDIS1LRR). We therefore tried to purify MDIS1LRR from insect cells. However, although several constructs had been tested, expression of MDIS1LRR protein alone was undetectable. […]
A general note: SEC sorts molecules by how far they enter the pores of the column.

Test [1] relates to prk6 pollen tubes transformed with PRK6 of wild-type. Put plainly: Wavy assay, prk6 pollen tubes transformed with wild-type PRK6. The note with it: 250 nM wild-type AtLURE1.2 in medium. The class given is cell-based, Arabidopsis. The protocol:
Attraction activities of mutant AtLURE1.2 peptides were examined for semi-in-vivo pollen tubes growing through cut, pollinated pistils by gelatin-beads assay and wavy assay, [20]. For the gelatin-beads assay, pollen tubes were grown on solid pollen germination medium poured into a mold made with 1-mm thick silicone rubber and cover glasses. After hand-pollination, the topside cover glass was removed and the medium was covered with hydrated silicone oil (KF-96–100CS; Shin-Etsu). Attraction of pollen tubes toward the peptide was evaluated using AtLURE1 peptide containing gelatine beads under an inverted microscope (IX71, Olympus) equipped with a micro-manipulator (Narishige). For the AtLURE1-responsive wavy assay, the purified AtLURE1.2 peptide was added to solid pollen germination medium, which was melted at 70 °C and then cooled to a certain degree. The mixture was mixed by vortexing and poured into the mold. Pollen tubes of each genotype were grown through cut styles, as mentioned above. Each peptide (25 μM in 10 mM Bis-Tris (pH 6.0) and 100 mM NaCl) was diluted to 250 nM by cultivation medium in both assays. […]
pollen tubes. Fluorescence is from mRuby2 fused to the C-terminal of PRK6 receptors, showing that all of mutant PRK6 receptors localize normally to the plasma membrane of the pollen tube tip. […]

B1: AtLURE1.2: mature form of AtLURE1.2 (residues 20–90), defensin-like cysteine-rich peptide expressed in insect cells (protein)
chain: TLINGSSDEERTYSFSPTTSPFDPRSLNQELKIGRIGYCFDCARACMRRGKYIRTCSFERKLCRCSISDIK
modifications: left off: His6, N-terminal, cleaved | SUMO, N-terminal, cleaved
notes: mature form of AtLURE1.2 (residues 20–90), defensin-like cysteine-rich peptide expressed in insect cells
B1: the “interaction in gel filtration” value in the test on SUMO-tagged MDIS1LRR is on record as “no interaction”; with SUMO-tagged MDIS1LRR (listed as LURE1.2) it was “well separated from the two proteins”. The “wavy and branched pollen tube behavior” value in test [1] was “severe wavy and branched behavior”.
